From US20210023121A1, “THROMBIN-RESPONSIVE HYDROGELS AND DEVICES FOR AUTO-ANTICOAGULANT REGULATION” (North Carolina State University, priority 2017, published 2021)

Target: T1, thrombin (Bos taurus, UniProt P00735)
T1 construct: purchased Sigma-Aldrich
Assay: LC-MS analysis of peptide cleavage by thrombin
Type: biochemical
Conditions: 12 h incubation with 1 U mL^-1 thrombin in Tris buffer pH 7.4
Protocol: LC-MS analysis of peptide cleavage. Peptide with sequence GGLVPR|GSGGC (SEQ ID NO:1) was incubated with thrombin (1 U/mL) in Tris buffer (20 mM Tris, 150 mM NaCl, 2.5 mM KCl, pH 7.4) for 12 h.

cleavage of the peptide by thrombin (LCMS): efficiently cleaved
Sequence: GGLVPRGSGGC [thrombin cleavable peptide, linker peptide cleaved by thrombin between Arg and Gly]
